Test: soluble on expression in E. coli; label from the status in PepcDB or PDB records

Sequence	soluble on expression in E. coli
ASNITRINEIIEIAVNNKRKVCLLGKSMDVNVNISRKIGLMDIDSNDIVEVRDIKNYPDRSILILCTGSQGEDSAALNTMARGKHNWVSLKSTDTIIMSSNPIPGNYAAVENLLNELSKYGVTIFENSPNMKLHASGHATQQELQLMLNLVFPRYLIPIHGEYKMMRTIKNIAQECGINGDDVGLLANGQVMYLIDGKLYYSGEVINADPIYIESRNSSPDLARVIKQRQILSREGMFAVIVVFDKNNNILGMPTLITRGCFFALDSSPLMTKITHSIKRGLENVIQNKRFNTREQMIKELKRVCKETVSYFIWKNKSRNPLISTVLSWV	soluble
MSLAQKRYKHILWDLDGTIIDSKIGVSESIRYCLKYFNIEVTCLDEFKPMIGPPLQDSLREIYNFSPQQVEIACKLYDEYYMKKGIHEYKVFQNIEKVLSQLQNDNKELYVATTKPEYAAKQLLADCKLDTYFKFIGGDNEEFTRSNKADVIQYVLSANNISATDNVVMIGDRKYDMLAAKKIGIDTIGVLYGYGDRNELLTNGAQYIIEEPYELLNLLKGEGHHHHHH	soluble
MALSKFNLFIGDILFNTLTGYAIKLESWEIEKLRKGVVPEHLKDIIEEGFSATDEDLDEEIEKFLRKPVLEPTLVLTYNCNFDCIYCFQKGFRKNISVSDKVTRGFVNYIRKNEKGRKVRVTYFGGEPILQLRKIEEISRELSDLKYSFSVVTNGSLLTRKIVERLIPLGLTHVQITLDGPKEVHDKRRFFVSGEGTFDVIVKNLKEIQDMVKVVLRINIDVKNLNEIGELLNELKMEGINRVRLDPHLVHSNVFRNEWWDFTISSKAEGDVMVKFWEIARKYGFEVPQDVLRLGLCVAYSSEDIVVDPEGNIYPCWAFTGNPLYVKGKLEEDGSVKVTNKSLWWKVKIEDKCRECPFLPLCMGGCKFLATINGDDCKREAYEKIVRSIRWVMG	not soluble
VKIDNKTFQVNGRVLLDDLTEEFGIEFDDSEDIDTIGGWLQSRNTNLQKDDYVDTTYDRWVVSEIDNHQIIWVILNYEFNEARPTIGQSDEDEKSE	not soluble
MAVPQLYYFNLRGFGEYIRLLFLDNGIQFEDIRFDYEGKEWQEFKKGMLLGQLPCLKVDRQEIVQTGAIMRHLGRVHEKNLARNFNFSKKYLMGKLTFLEKCGLNGSNEQEATFLDMFFEGVRDVRWKYVRSSRTLKSFWERMWKRPNLNAYLEKRKADKVRINGSDKGMN	not soluble
GSMKPMGPNDYMVIGLARIDDRLIHGQVATRWTKETNVSRIIVVSDEVAADTVRKTLLTQVAPPGVTAHVVDVAKMIRVYNNPKYAGERVMLLFTNPTDVERLVEGGVKITSVNVGGMAFRQGKTQVNNAVSVDEKDIEAFKKLNARGIELEVRKVSTDPKLKMMDLISKIDK	soluble
MVMSKYTQEQIKNLVEGNLDWNTVLKMLSMPKDHERFQMYLKVLQDKVDFDDKIVLPLGPHLFVVQDAQKKWVIKCSCGHAFCAPEENWKLHANIYVRDTAEKMEEVYPKLLASDTHWQVYREYICPDCGILLDVEAPTPWYPVIHDFEPDIEVFYKDWLGIQPPERR	not soluble
SLFLLDPFSGISGDMFLSAMIDFVDKEDFINTIKKVIDVEIEIKKVKKCHILANKVNIIPKCINCNANTYKDIKNVIKSSDIQEDIKITALEILKILAEAESKVHNVDVENVHFHEVGNYDTIADIVGAAYIINKLNLKNNCLYKPINVGNGFVRTEHGLLPVPAPATAEILKGLKIFFSDINEELTTPTGSAIIKYINPKLAKGAFIIKEVSYGAGDKDLNLLNALRVFRVEDIKREDIVLLETNVDDISAEILGYLYEVLDGKVRDLHFIPTYMKKNRPAYTIRAIVDRDIAEEVAKIIMRETGSLGVRIFDIERITADREFKTIKLFDESVRLKVGRVNDEIISQKPEFEDLKNIAKKYGIPLKDLYKLINISQIKN	soluble
MSEKLDLTRFEKKMVIRNIEEKDIDKIIDLQKDCFPGMEPWKREHLISHLEHFPEGQFCAEFEGEIIGSCSSLLINFDEYDDRHTWQDITDDGYITNHNPDGLNMYGIEVMVHPKYRRMKIGHRLYEARKDLARRLSLKSIIIGGRIPNYHKYAEEMTAREYVEQVTRHQIYDPVLSFQLMNGFTLMRINPNYLPDDTASIKY	not soluble
MKKLATLTALAGALTMAVATAAQAESKSSSTDNTATPCVGDKCVKTKAAEGKCGEGKCGADKAKSAEGKCGEGKCGADKAKSAEGKCGEGKCGSK	not soluble
MSLSINSREVLAEKVKNAVNNQPVTDMHTHLFSPNFGEILLWDIDELLTYHYLVAEVMRWTDVSIEAFWAMSKREQADLIWEELFIKRSPVSEACRGVLTCLQGLGLDPATRDLQVYREYFAKKTSEEQVDTVLQLANVSDVVMTNDPFDDNERISWLEGKQPDSRFHAALRLDPLLNEYEQTKHRLRDWGYKVNDEWNEGSIQEVKRFLTDWIERMDPVYMAVSLPPTFSFPEESNRGRIIRDCLLPVAEKHNIPFAMMIGVKKRVHPALGDAGDFVGKASMDGVEHLLREYPNNKFLVTMLSRENQHELVVLARKFSNLMIFGCWWFMNNPEIINEMTRMRMEMLGTSFIPQHSDARVLEQLIYKWHHSKSIIAEVLIDKYDDILQAGWEVTEEEIKRDVADLFSRNFWRFVGRNDHVTSVKVEQQTEGHHHHHH	soluble
MSLTIKLITFDLDDTLWDTAPVIVSAEATLRQWLTEHAPNLGGVPVEHLWAIRERVLLAQPNLKHRISALRRQVLFHALEEAGYDHAQANQLADQSFEVFLHARHQLEIFPEVQPTLEALANHFALGVVTNGNADVRRLGLADYFKFALCAEDIGIAKPDARLFHEALQRGEATADTAVHIGDHPGDDIAGAQQAGLRAIWFNPNGKTWEAEHAPDAEIRSLNELPGLLARWHRGAEGHHHHHH	soluble
MSLMTSVVPSFCHQDRRSNQRMKGLSPLAMAQVVTLGVLEPRAQGAVRWRRCWPERSTVGAIEAQRHWRPYLELSWAEKQQRDERQSQRASRVREEMFAKGQPLAPYNTTQFLMNDRDLEEPNLDVLHGPSHSGSGGENEAGDSDGQGRAHGEFQQRDFSEAYERYHTESLQGRSKQELVRDYLDLERRLSQAEQETRRLRQLQGCSSRQPCQQVEELAAEVERLRTENQRLRQENEMWNREGGYCDQEKPASEGTPWPKVEAPFQTHTGQLGHREAGDR	soluble
MGSDKIHHHHHHMIEDNMKLKTGIPALDRILGGGFEKGCNIALVGGMDNDHILLTHQLTNAFLSSGKKVLLVELRQDPASLIKWLSQYNINYEEYLEDGDLKILDGFSNLYSPASISGPDVLPNPLDLGITTAIIRDNVSKEKYDILVFDDITSLYALQTDYKAYVRVIVRLTNSIRKLGASSLVAINSDVLSIQDLSMILMPFEYLIEIREGMIRFKRSFSFINVPGVPYVKTNKGIIPIEDVLKDAVSIRDSLVLTSDGVLKLGEGRVQLIGETSERSLIEFVYRFLGPEKGREFLYGWGRHEVEHLEIPKIESVEEIKEILEEAFEVTRSTGGGILRIVEATKDIIIVEGKNLFPHIRNFPYPAHVHYAGYMAKLLEKATGERWEGEEIKCESQTNDKCIFILRRV	not soluble
MGSDKIHHHHHHMKLSYVTDSLGHLPFEDMLNFAAKLGIDTLEMTTGGWSPAPHLNLDELLQSSEKRKEFSQALEKRNMTLCALNCSGNPLDPGELGKSHRDITDKTMELAGLLGVKKVIMMSGLPAGGPDDKVPNWITYTVSWPPVLKDILNYQWEDVAIPYWKKLVKKAEACGVGKIALENFSSQLVYNPETLFRLRNAVGPMVGLNLDPSHLLWMGADPIIAARELGSAIHHVHGKDVRIERYLSAVNGLLETKEVTDPANRAWNYVAVGCGQDLQWWKEFFSVVKMMGYEGEVSLEMEDLTMSPEAGIRTSVEALKQTISQ	not soluble
SSSTLGKLSNQVEETLPLLKKVPANYFHICSAILMGFSLSKSATQVSAIHMDSKVDDHLIRGTEKSRLEPATQLFQNTKKIRLEDTNQENFTRIEGTGTGSLSGKALGSVVYVKESDGLEMTDVE	soluble
SLSFASSACFNEAGTMFRIEPNLIKAIALVESNLKKDSIGKNRDKKNNIKSFDYGLMQINQMHIPMLKKRGIIKDERDLLDNPCLNIKIGTEILYKHFSRCGMTWQCLGTYNAGFAMDNQKKRLQYAKKIYIVYTRLNELDNRKALA	not soluble
